Experimental data from US7741541.

Target: barnase (ribonuclease from Bacillus amyloliquefaciens) (Bacillus amyloliquefaciens) (UniProt P00648)
Test: cell-based or functional assay

UniProt P00648, sequence (P00648 48-157 limits assumed): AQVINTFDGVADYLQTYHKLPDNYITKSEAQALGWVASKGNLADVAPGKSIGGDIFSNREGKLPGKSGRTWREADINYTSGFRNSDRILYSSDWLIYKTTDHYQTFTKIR

barstar protein (product of the wild type and of the modified barstar gene of Bacillus amyloliquefaciens) (from UniProt P11540 2-90)
Percent of restored (male fertile) plants after transformation of barnase line bn 3.6 with construct A, A9-bs(fm)::TA29-bs(wt): 89.8% | Percent of restored (male fertile) plants after transformation of barnase line bn 3.6 with construct B, TA29-bs(wt): 65.6% | Percent of restored (male fertile) plants after transformation of barnase line bn 3.6 with construct C, A9-bs(wt): 12.7% | Percent of restored (male fertile) plants after transformation of barnase line bn 3.6 with construct D, A9-bs(fm): 10.8%
